Measured values: PMC7261175, “A splice site-sensing conformational switch in U2AF2 is modulated by U2AF1 and its recurrent myelodysplasia-associated mutation” (Nucleic Acids Research, 2019)
Numbering of substitutions follows the chain as printed. Names and notes keep the numbering of the source.

Experiments:
[1] = target: T1, D215R/G319R U2AF2^Cy3/Cy5 (residues 85-342, C305A, A181C, Q324C, labelled with Cy3/Cy5) (human, UniProt P26368-2 85-342, D215R | G319R | C305A | A181C | Q324C, Cy3- or Cy5-maleimide on the cysteines at 181 and 324 (a mixture of Cy3/Cy5 at each site)); test: single-molecule imaging (smFRET, TIRF) of labelled U2AF2 tethered to the slide through His-tagged U2AF1; His6SumoMBP-U2AF1 with bound U2AF2^Cy3/Cy5 (5 nM heterodimer) held on biotinyl-NTA(Ni2+)/neutravidin slide; 1000 nM excess U2AF1 in the buffer; no RNA; room temperature; 25 mM HEPES pH 7.0, 150 mM KCl; conditions: both partners purified
T1 construct: The methods print the mutant once as D215R-D319R; results, legends and discussion print D215R/G319R; also called D215R/G319R mutant; D215R-D319R-mutant U2AF2; not shown: GST, N-terminal, cleaved

[2] = target: T2, U2AF2^Cy3/Cy5 (residues 85-342, C305A, A181C, Q324C, labelled with Cy3/Cy5) (human, UniProt P26368-2 85-342, C305A | A181C | Q324C, Cy3- or Cy5-maleimide on the cysteines at 181 and 324 (a mixture of Cy3/Cy5 at each site)); test: SEC; labelled U2AF2 mixed with stoichiometric His6SumoMBP-U2AF1, salt lowered to 150 mM NaCl, 25 mM HEPES pH 7.0, 3% glycerol, 0.2 mM TCEP; complex purified on Superdex-200; conditions: both partners purified
T2 construct: pGEX6p-1 vector, GST removed with PreScission protease; also called U2AF^65; labeled U2AF2; not shown: GST, N-terminal, cleaved

[3] = target: T2, U2AF2^Cy3/Cy5 (residues 85-342, C305A, …); test: single-molecule imaging (smFRET, TIRF) of labelled U2AF2 tethered to the slide through His-tagged U2AF1; His6SumoMBP-U2AF1 with bound U2AF2^Cy3/Cy5 (5 nM heterodimer) held on biotinyl-NTA(Ni2+)/neutravidin slide; 1000 nM excess U2AF1 in the buffer; no RNA; room temperature; 25 mM HEPES pH 7.0, 150 mM KCl; conditions: both partners purified
[4] = target: T3, His6SumoMBP-U2AF1;U2AF2 Cy3/Cy5 (human;human, UniProt Q01081;P26368-2 1-188;85-342, C67S|A181C;C305A;Q324C); test: smFRET titration; protein tethered; from 0.4 and 0.6 FRET peak areas; Anisotropy: 150 mM NaCl, 25 mM HEPES pH 6.8, 0.5 mM TCEP, 3% glycerol, 20 uM ZnCl2, 0.2 U/ul SUPERase-In; smFRET: 25 mM HEPES pH 7.0, 150 mM KCl, 0.01% octaethylene glycol monododecyl ether, 0.2 mM TCEP, 6 mM BME, 1.5 mM Trolox, oxygen scavenger, room temperature, excess U2AF1 (1000 nM) with heterodimer; conditions: protein: recombinant;recombinant; tags: N-terminal His6-SUMO-MBP with AAA linker; C-terminal extra Ala;GST cleaved; Cy3/Cy5 on C181 and C324; copies: 1;1
[5] = target: T3, His6SumoMBP-U2AF1;U2AF2 Cy3/Cy5; test: smFRET; RNA tethered; ~70% closed; Anisotropy: 150 mM NaCl, 25 mM HEPES pH 6.8, 0.5 mM TCEP, 3% glycerol, 20 uM ZnCl2, 0.2 U/ul SUPERase-In; smFRET: 25 mM HEPES pH 7.0, 150 mM KCl, 0.01% octaethylene glycol monododecyl ether, 0.2 mM TCEP, 6 mM BME, 1.5 mM Trolox, oxygen scavenger, room temperature, excess U2AF1 (1000 nM) with heterodimer; conditions: protein: recombinant;recombinant; tags: N-terminal His6-SUMO-MBP with AAA linker; C-terminal extra Ala;GST cleaved; Cy3/Cy5 on C181 and C324; copies: 1;1; label: biotin on annealed DNA; stem-loop
[6] = target: T4, U2AF2 Cy3/Cy5 isolated subunit (human, UniProt P26368-2 113-342, A181C;C305A;Q324C); test: smFRET; RNA tethered; Anisotropy: 150 mM NaCl, 25 mM HEPES pH 6.8, 0.5 mM TCEP, 3% glycerol, 20 uM ZnCl2, 0.2 U/ul SUPERase-In; smFRET: 25 mM HEPES pH 7.0, 150 mM KCl, 0.01% octaethylene glycol monododecyl ether, 0.2 mM TCEP, 6 mM BME, 1.5 mM Trolox, oxygen scavenger, room temperature, excess U2AF1 (1000 nM) with heterodimer; conditions: protein: recombinant, tags: His6 and T7 tags, label: biotin on annealed DNA, stem-loop
[7] = target: T5, His6SumoMBP-U2AF1 S34F;U2AF2 Cy3/Cy5 (human;human, UniProt Q01081;P26368-2 1-188;85-342, S34F;C67S|A181C;C305A;Q324C); test: smFRET; RNA tethered; similar to WT; Anisotropy: 150 mM NaCl, 25 mM HEPES pH 6.8, 0.5 mM TCEP, 3% glycerol, 20 uM ZnCl2, 0.2 U/ul SUPERase-In; smFRET: 25 mM HEPES pH 7.0, 150 mM KCl, 0.01% octaethylene glycol monododecyl ether, 0.2 mM TCEP, 6 mM BME, 1.5 mM Trolox, oxygen scavenger, room temperature, excess U2AF1 (1000 nM) with heterodimer; conditions: protein: recombinant;recombinant, tags: N-terminal His6-SUMO-MBP with AAA linker, C-terminal extra Ala;GST cleaved, Cy3/Cy5 on C181 and C324, copies: 1;1, label: biotin on annealed DNA
[8] = target: T4, U2AF2 Cy3/Cy5 isolated subunit; test: smFRET; RNA tethered; open and closed; Anisotropy: 150 mM NaCl, 25 mM HEPES pH 6.8, 0.5 mM TCEP, 3% glycerol, 20 uM ZnCl2, 0.2 U/ul SUPERase-In; smFRET: 25 mM HEPES pH 7.0, 150 mM KCl, 0.01% octaethylene glycol monododecyl ether, 0.2 mM TCEP, 6 mM BME, 1.5 mM Trolox, oxygen scavenger, room temperature, excess U2AF1 (1000 nM) with heterodimer; conditions: protein: recombinant; tags: His6 and T7 tags; Cy3/Cy5; label: biotin on annealed DNA
[9] = target: T3, His6SumoMBP-U2AF1;U2AF2 Cy3/Cy5; test: as above; conditions: protein: recombinant;recombinant; tags: N-terminal His6-SUMO-MBP with AAA linker; C-terminal extra Ala;GST cleaved; Cy3/Cy5 on C181 and C324; copies: 1;1; label: biotin on annealed DNA
[10] = target: T5, His6SumoMBP-U2AF1 S34F;U2AF2 Cy3/Cy5; test: smFRET; RNA tethered; 33% closed; Anisotropy: 150 mM NaCl, 25 mM HEPES pH 6.8, 0.5 mM TCEP, 3% glycerol, 20 uM ZnCl2, 0.2 U/ul SUPERase-In; smFRET: 25 mM HEPES pH 7.0, 150 mM KCl, 0.01% octaethylene glycol monododecyl ether, 0.2 mM TCEP, 6 mM BME, 1.5 mM Trolox, oxygen scavenger, room temperature, excess U2AF1 (1000 nM) with heterodimer; conditions: protein: recombinant;recombinant; tags: N-terminal His6-SUMO-MBP with AAA linker; C-terminal extra Ala;GST cleaved; Cy3/Cy5 on C181 and C324; copies: 1;1; label: biotin on annealed DNA
[11] = target: T3, His6SumoMBP-U2AF1;U2AF2 Cy3/Cy5; test: smFRET; RNA tethered; 66% closed; Anisotropy: 150 mM NaCl, 25 mM HEPES pH 6.8, 0.5 mM TCEP, 3% glycerol, 20 uM ZnCl2, 0.2 U/ul SUPERase-In; smFRET: 25 mM HEPES pH 7.0, 150 mM KCl, 0.01% octaethylene glycol monododecyl ether, 0.2 mM TCEP, 6 mM BME, 1.5 mM Trolox, oxygen scavenger, room temperature, excess U2AF1 (1000 nM) with heterodimer; conditions: protein: recombinant;recombinant; tags: N-terminal His6-SUMO-MBP with AAA linker; C-terminal extra Ala;GST cleaved; Cy3/Cy5 on C181 and C324; copies: 1;1; label: biotin on annealed DNA
[12] = target: T5, His6SumoMBP-U2AF1 S34F;U2AF2 Cy3/Cy5; test: smFRET; RNA tethered; same as IgM(-3C); Anisotropy: 150 mM NaCl, 25 mM HEPES pH 6.8, 0.5 mM TCEP, 3% glycerol, 20 uM ZnCl2, 0.2 U/ul SUPERase-In; smFRET: 25 mM HEPES pH 7.0, 150 mM KCl, 0.01% octaethylene glycol monododecyl ether, 0.2 mM TCEP, 6 mM BME, 1.5 mM Trolox, oxygen scavenger, room temperature, excess U2AF1 (1000 nM) with heterodimer; conditions: protein: recombinant;recombinant; tags: N-terminal His6-SUMO-MBP with AAA linker; C-terminal extra Ala;GST cleaved; Cy3/Cy5 on C181 and C324; copies: 1;1; label: biotin on annealed DNA; stem-loop (predicted)
[13] = target: T3, His6SumoMBP-U2AF1;U2AF2 Cy3/Cy5; test: smFRET; RNA tethered; more open than IgM(-3C); Anisotropy: 150 mM NaCl, 25 mM HEPES pH 6.8, 0.5 mM TCEP, 3% glycerol, 20 uM ZnCl2, 0.2 U/ul SUPERase-In; smFRET: 25 mM HEPES pH 7.0, 150 mM KCl, 0.01% octaethylene glycol monododecyl ether, 0.2 mM TCEP, 6 mM BME, 1.5 mM Trolox, oxygen scavenger, room temperature, excess U2AF1 (1000 nM) with heterodimer; conditions: protein: recombinant;recombinant; tags: N-terminal His6-SUMO-MBP with AAA linker; C-terminal extra Ala;GST cleaved; Cy3/Cy5 on C181 and C324; copies: 1;1; label: biotin on annealed DNA; stem-loop (predicted)

T3 sequence (P26368 85-342 A181C/C305A/Q324C, one chain of several): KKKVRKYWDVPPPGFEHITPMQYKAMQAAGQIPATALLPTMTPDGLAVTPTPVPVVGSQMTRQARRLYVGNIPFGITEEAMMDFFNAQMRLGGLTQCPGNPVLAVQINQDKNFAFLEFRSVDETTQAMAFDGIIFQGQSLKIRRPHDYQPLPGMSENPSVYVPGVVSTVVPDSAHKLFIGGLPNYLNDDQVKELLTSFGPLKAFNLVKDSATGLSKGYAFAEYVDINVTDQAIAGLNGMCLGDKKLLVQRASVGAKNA
T5 sequence (P26368 85-342 A181C/C305A/Q324C, one chain of several): as above
T4 sequence (P26368 113-342 A181C/C305A/Q324C): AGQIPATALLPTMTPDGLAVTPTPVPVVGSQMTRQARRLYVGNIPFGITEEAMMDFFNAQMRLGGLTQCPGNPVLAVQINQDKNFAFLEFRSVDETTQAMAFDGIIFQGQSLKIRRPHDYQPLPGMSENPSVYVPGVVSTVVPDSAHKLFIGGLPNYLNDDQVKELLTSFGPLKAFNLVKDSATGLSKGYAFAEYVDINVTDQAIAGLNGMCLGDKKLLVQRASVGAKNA
T2 sequence (P26368 85-342 A181C/C305A/Q324C): as the sequence (P26368 85-342 A181C/C305A/Q324C, one chain of several) above
T1 sequence (P26368 85-342 A181C/D215R/C305A/G319R/Q324C): as the sequence (P26368 85-342 A181C/C305A/Q324C, one chain of several) above, with D131R, G235R counted along it

B1: His6SumoMBP-U2AF1 (residues 1-188, C67S, C-terminal alanine) (domain or fragment, human)
chain: MAEYLASIFGTEKDKVNCSFYFKIGACRHGDRCSRLHNKPTFSQTIALLNIYRNPQNSSQSADGLRSAVSDVEMQEHYDEFFEEVFTEMEEKYGEVEEMNVCDNLGDHLVGNVYVKFRREEDAEKAVIDLNNRWFNGQPIHAELSPVTDFREACCRQYEMGECTRGGFCNFMHLKPISRELRRELYGRA
notes: C-terminal alanine added to enhance soluble protein expression; A three-alanine linker is part of the N-terminal tag; Modified pCDF-1b vector; also called U2AF^35; MBP-fused U2AF1; source: E. coli BL21(DE3), purified (HisTrap, Superdex-75 SEC); not shown: His6, N-terminal, kept; Sumo, N-terminal, kept; MBP, N-terminal, kept
binding result [1]: binds
binding result [2]: binds

B2: S34F-mutant His6SumoMBP-U2AF1 (residues 1-188, C67S, C-terminal alanine) (domain or fragment, human)
chain: B1 chain with S34F
notes: C-terminal alanine added to enhance soluble protein expression; S34F was introduced into the corresponding wild-type U2AF1 construct; three-alanine linker in the N-terminal tag as for m1; also called S34F U2AF1; S34F mutant U2AF1; source: E. coli BL21(DE3), purified by identical methods as the wild-type parent (HisTrap, Superdex-75 SEC); not shown: His6, N-terminal, kept; Sumo, N-terminal, …
binding result [3]: binds

UCCCUUUUUUUUCCACAGCUCGCGGU (ssRNA) [AdML]
Kd [4]: ~600 nM

UGUCUCUGUCACCUGCAGGUGAAAUG (structured_RNA, 3' PEG18-DNA conjugate) [IgM (-3C)]
binding result [5]: binds
binding result [6]: binds
binding result ([7]; stem-loop): binds

UACUAAAUUAAUUUCUAGAAAAGAGU (ssRNA, 3' PEG18-DNA conjugate) [DEK (-3U)]
binding result [8]: binds
binding result [9]: binds
binding result [7]: binds

CCAUUUAUUUUGACUUAGAUUAUAUU (ssRNA, 3' PEG18-DNA conjugate) [CASP8]
binding result [9]: binds
binding result [7]: binds

ACUUUUAACUCUCGAUAGGAACUAAU (ssRNA, 3' PEG18-DNA conjugate) [FMR1]
binding result [10]: binds
binding result [11]: binds

UGUCUCUGUCACCUGUAGGUGAAAUG (structured_RNA, 3' PEG18-DNA conjugate) [IgM(-3U)]
binding result [12]: binds
binding result [13]: binds
